One substance from patent US20210030885A1, “HUMANIZED ANTI-LIV1 ANTIBODIES FOR THE TREATMENT OF CANCER” (priority 2019, published 2021) can be followed below.

The nature of series [1]: Drug to antibody ratio (DAR) of ADC in blood samples after LV administration, Q3W. The format is in vivo, human. To be noted: Q3W dosing. How it is done: In order to investigate pharmacokinetics of ADC species with different DARs under the previous tri-weekly dosing scheme (Q3W) versus a weekly dosing scheme (Q1W), LV was administered to subjects accordingly, and the pharmacokinetics of ADC species with different DARs were simulated.
Breast cancer patients were treated with ladiratuzumab vedotin (LV).
LV was administered by 30 minute intravenous (IV) infusion under a Q3W interval.
Following administration of LV, subject blood samples were collected at pre-dose, end of infusion, 2 hrs, 4 hrs, 8 hrs, 1 day, 3 days, 7 days, and 14 days after administration. The concentrations of the antibody-drug conjugate (ADC) was measured, and the drug to antibody ratio (DAR) of each species (DAR8, DAR7, DAR6, DARS, DAR4, DAR3, DAR2, DAR1 and DAR0) of the ADCs collected in blood samples was also analyzed. […] Using computer-assisted modeling, where decrease in average DAR was established previously, i.e. from 4 (on Day 0) to 1 (on Day 7) under Q3W, the pharmacokinetics were simulated for (i) ADCs with DARs≥4, or (ii) ADCs with DAR of between 2 and 3 (FIGS. 3B, C respectively) when LV was administered at a dose of 1 mg/kg on Day 1 of each 7-day cycle (Q1W) or at a dose of 3 mg/kg on Day 1 of each 21-day cycle (Q3W). […]

Series [2] is described as follows: Chemical and physical stability of the reconstituted drug product. The format is physicochemical. The note with it: at 2-8° C. and at room temperature. The protocol:
When reconstituted with 8.8 mL Water for Injection (WFI), US Pharmacopeia (USP), the concentration of reconstituted LV product is 5 mg/mL. The reconstituted drug product is a clear to slightly opalescent, colorless to light yellow solution with no visible particulate matter. The pH is approximately 6.0. The reconstituted solution is subsequently diluted in sterile 0.9% Sodium Chloride for Injection, USP, for IV administration.
If not used immediately, the in-use storage should not be longer than 24 hours under refrigeration at 2-8° C. The prepared dosing solution (reconstituted drug product solution and saline dilution in an IV bag or polypropylene syringe) should be administered within 8 hours after exposing to ambient temperature and light condition.

ladiratuzumab vedotin [LV]: the “DAR of ADCs in blood” value is reported as “about 4” in series [1] (Day 0) and “about 1” in series [1] (Day 7). Further, in series [2], the “Chemical and physical stability of the reconstituted drug product demonstrated for” value was found to be 24 h.
